US10704056B2, “Constitutively active ABA receptor mutants” (The Regents of the University of California, priority 2011, dated 2020)

Columns and labels:
HAB1 = assay: In vitro PP2C phosphatase (pNPP) receptor activation assay with HAB1; assay type: biochemical, Arabidopsis; details: 600 nM GST-HAB1, 0-4800 nM receptor, no ABA
Procedure: Recombinant receptor proteins were produced as follows: Coding sequences were cloned into pET28 yielding 6×HIS (SEQ ID NO:173) fusions proteins and transformed into E. coli expression strain BL21. […]. Cells were stored at −80° C. before purification. After thawing, cells were sonicated on ice five times for 30 sec with 30 sec resting intervals. A cleared lysate was obtained after centrifugation at 12,000×g for 10 min and applied to 1 ml of Ni-NTA column (Qiagen) and washed with 20 column volumes of Buffer A containing 30 mM imidazole. Bound protein was eluted with 10 ml of Buffer A with 250 mM imidazole. The elutate was dialyzed against TBS. The purified recombinant proteins were then used together with recombinant phosphatases in receptor assays. In these assays, receptor activity is indicated by inhibition of phosphatase activity, as inferred from initial reaction velocities for GST-HAB1 mediated hydrolysis of the synthetic phosphatase substrate pNPP. Reactions contained 600 nM GST-HAB1 and either 0, 600, 1200, 2400 or 4800 nM 6×His-PYR1 or variants in a reaction buffer consisting of 33 mM Tris-OAc, pH 7.9, 66 mM KOAc, 0.1% BSA, 25 mM Mn(OAc)2, 50 mM pNPP. To infer the level of receptor activation with respect to fully activated wild type receptor, control reactions were also conducted using saturating levels of (+)-ABA (10 μM), and 600 nM wild type PYR1 and HAB1. Immediately after mixing proteins and substrates, reactions were monitored for hydrolysis of pNPP at A405 at ˜10 second intervals over 20 minutes using a Wallac plate reader. Reaction progressions were plotted, initial velocities calculated and converted to specific activities using a standard curve for 4-nitrophenol made in the same buffer system volumes/plate reader used for enzymatic reaction measurements. The values shown are expressed as %-control phosphatase activity levels as measured in the absence of receptor protein. The average specific activity level of GST-HAB1 utilized in our experiments was 4000 μmol/min/mg, when assayed on the phosphatase substrate pNPP in the absence of PYR1 or other receptors, as described using the methods above.
(§1) Full length ABI1 and ABI2 were cloned into a modified pSUMO vector (LifeSensors Inc, USA) vector yielding 6×His-SUMO fusion proteins; GST-HAB1 was expressed and purified as previously described (Park et al., 2009). Mutant receptors were cloned into pET28 yielding 6×His-fusion proteins. […]. The cultures were pre-incubated 2 hours at 30° C. and, for PP2C expression, media was supplemented with 4 mM MnCl2 one hour after inoculation. After pre-incubation, IPTG was added (1 mM) and cells were induced at 15° C. for 16 hours, after which they were collected by centrifugation, resuspended in 5 ml Buffer A (50 mM NaH2PO4, 300 mM NaCl) +10 mM imidazole, pH 8.0 and stored at −80° C. For purification, cells were thawed, sonicated on ice (60 seconds) and a cleared lysate was then applied a 1 ml-bed volume column of Ni-NTA (Qiagen, USA), washed with 20 column volumes of Buffer A+30 mM imidazole and bound protein eluted with 1 ml of Buffer A+250 mM imidazole. For receptors, the elutate was dialyzed against TBS and for PP2Cs, fusion proteins were desalted by passage over a Sephadex G50 column.
The purified receptors and phosphatases were then used in receptor assays where receptor activation is indicated by inhibition of phosphatase activity, as inferred from initial reaction velocities for PP2C-mediated hydrolysis of the synthetic phosphatase substrate pNPP in reactions containing 600 nM PP2C and either 0, 600, 1200, 2400 or 4800 nM receptor. The receptor assay buffer consisted of 33 mM Tris-OAc, pH 7.9, 66 mM KOAc, 0.1% BSA, 25 mM Mn(OAc)2, 0.1%13-ME and 50 mM pNPP. Immediately after mixing proteins and substrates, reactions were monitored for hydrolysis of pNPP at A405 at ˜2 minutes intervals using a Wallac plate reader. […]

ABI2 = target: T1, ABI2 (Arabidopsis thaliana, UniProt O04719); assay: In vitro PP2C phosphatase (pNPP) receptor activation assay with ABI2; assay type: biochemical; details: 600 nM PP2C, 0-4800 nM receptor, no ABA
T1 construct: Full length ABI1 and ABI2 were cloned into a modified pSUMO vector; made in house; host or cells: E. coli BL21 (DE3) pLysS
T1 sequence (O04719 1-423): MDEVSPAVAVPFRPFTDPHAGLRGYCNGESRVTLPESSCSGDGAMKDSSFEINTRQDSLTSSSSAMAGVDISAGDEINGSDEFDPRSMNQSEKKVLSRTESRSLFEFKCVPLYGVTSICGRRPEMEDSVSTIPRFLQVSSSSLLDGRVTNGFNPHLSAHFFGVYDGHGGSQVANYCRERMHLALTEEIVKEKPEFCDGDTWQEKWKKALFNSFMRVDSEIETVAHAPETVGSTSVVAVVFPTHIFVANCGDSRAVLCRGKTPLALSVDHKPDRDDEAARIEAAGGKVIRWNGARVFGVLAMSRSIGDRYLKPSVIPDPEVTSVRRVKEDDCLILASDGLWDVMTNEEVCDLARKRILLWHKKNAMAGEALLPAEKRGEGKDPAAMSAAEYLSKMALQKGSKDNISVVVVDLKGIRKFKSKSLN
Procedure: as §1
The purified receptors and phosphatases were then used in receptor assays where receptor activation is indicated by inhibition of phosphatase activity, as inferred from initial reaction velocities for PP2C-mediated hydrolysis of the synthetic phosphatase substrate pNPP in reactions containing 600 nM PP2C and either 0, 600, 1200, 2400 or 4800 nM receptor. The receptor assay buffer consisted of 33 mM Tris-OAc, pH 7.9, 66 mM KOAc, 0.1% BSA, 25 mM Mn(OAc)2, 0.1%13-ME and 50 mM pNPP. Immediately after mixing proteins and substrates, reactions were monitored for hydrolysis of pNPP at A405 at ˜2 minutes intervals using a Wallac plate reader. Reaction progressions were plotted, initial velocities calculated and converted to specific activities by comparison to a standard curve for 4-nitrophenol made in the same buffer system. PP2C activity values shown in figures are expressed as %-control phosphatase activity levels, as measured under identical reaction conditions in the absence of receptor protein. The average specific activity level of GST-HAB1, 6×His-SUMO-ABI1 and 6×His-SUMO-ABI2 utilized in our experiments was 4500 (GST-PP2C) or 2500 (SUMO-PP2C) μmol/min/mg, when assayed using the phosphatase substrate pNPP in the absence of PYR1 or other receptors.

B1: PYL2^CA3: PYL2 mutant (H65P, V87F, F165V); expressed in plants as 35S-driven GFP fusion (protein)
chain: HHHHHHMSSSPAVKGLTDEEQKTLEPVIKTYHQFEPDPTTCTSLITQRIHAPASVVWPLIRRFDNPERYKPFVKRCRLISGDGDVGSVREVTFISGLPASTSTERLEFVDDDHRVLSFRVVGGEHRLKNYKSVTSVNEFLNQDSGKVYTVVLESYTVDIPEGNTEEDTKMVVDTVVKLNLQKLGVAATSAPMHDDE
- basal receptor activity (inhibition of HAB1 phosphatase activity in the absence of ABA) (HAB1): highly activated in the absence of ABA
- constitutive receptor activity on ABI2 in the absence of ABA (ABI2): active towards multiple PP2Cs
